Reference: publication PMC7654188

Molecular target: preassembled microtubule filaments (tubulin polymerised with Taxol)
Experiment: co-sedimentation; microtubule spin-down assay (Cytoskeleton BK029): 5, 10 and 20 ug of COS1 lysate with or without Taxol-stabilised microtubule, room temperature 30 min, 60% glycerol cushion, 100,000 x g 40 min; pellet blotted with HA tag and alpha-tubulin antibodies

Substance: HA-tagged CTTNBP2 D570Y (natural protein)
- fold microtubule binding relative to WT protein: 2.5 to 4 fold
